The series concerns the molecule itself. The series can be described thus: electron microscopy.

B1: Helicobacter pylori DnaA protein (natural protein, H. pylori, UniProt O26057 1-457, looked up)
chain: MDTNNNIEKEILALVKQNPKVSLIEYENYFSQLKYNPNASKSDIAFFYAPNQVLCTTITAKYGALLKEILSQNKVGMHLAHSVDVRIEVAPKIQINAQSNINYKAIKTSVKDSYTFENFVVGSCNNTVYEIAKKVAQSDTPPYNPVLFYGGTGLGKTHILNAIGNHALEKHKKVVLVTSEDFLTDFLKHLDNKTMDSFKAKYRHCDFFLLDDAQFLQGKPKLEEEFFHTFNELHANSKQIVLISDRSPKNIAGLEDRLKSRFEWGITAKVMPPDLETKLSIVKQKCQLNQITLPEEVMEYIAQHISDNIRQMEGAIIKISVNANLMNASIDLNLAKTVLEDLQKDHAEGSSLENILLAVAQSLNLKSSEIKVSSRQKNVALARKLVVYFARLYTPNPTLSLAQFLDLKDHSSISKMYSGVKKMLEEEKSPFVLSLREEIKNRLNELNDKKTAFNSSE
Turning to B1, the binding result is on record as “binds”.

The values are drawn from article PMC3479198 (Nucleic Acids Research, 2012).
